According to the DeepSol protein solubility set:

assay: soluble on expression in E. coli; label from the status in PepcDB or PDB records

Soluble on expression in E. coli, not soluble:
MGSDKIHHHHHHMFDRSRKGEHALLIQTHSGGPAEEDVLEEFAELAKSAGATVAATLTARIDKPSPSTLIGSGKLEEVKAAAEATGADLVLVNHTLSPGQERNLERYLERRVIDRTGLILDIFAQRARSHEGKLQVELAQLRHMATRLVRGWTHLERQRGGAIGLRGPGETQLETDRRLLQKRVEQLQKRLEKVEVQRTQMRRARMRSELPRIALVGYTNAGKSTLFNALTGADAYAADQLFATLDPTVRRIALPGGSAVLADTVGFVRDLPHELVAAFRSTLSEARDADLLLHIVDAADPLREERIHQVDEVLQAVGAGDLPQLLVFNKIDKIEGAEVRHDAQDGIPDQARRERVWISARDGRGLEELQRALGHRLDLRHITGSLRLPASAGRLRSKLHQLEVIRSEQVDEEGWLLEVDLPYVEAERLAAGEDGAPLRALLPDRREDWET, MGSDKIHHHHHHMFELHPDSSTPLVNQIIDGLRELIDNQTLKPGAKVPSIRAFAASYSVSTFTVVEAYDRLVAQGLLVSRGNAGFFVNRAAGELLEQHNTEADTSRPTFNSEWYLQQIFEIRQLPYKPGCGWLPNDWMYEDGLRRGLRQVAGSPLELSGYGDPMGLMELRALTAQNLQQELSIVANPAQLMLTHGASQALDLAARTLVRPGDVVLVDDPGYPNLMSILRTQGATLVGVPRTPAGYDLNQLEQLLSHHRPTAFFTQPHLHSPTCSRTPLPQLHRLLQLASQHGFRLVENNLYADMVAEPQPCLASLDHLQQVVYVGSYSKSISPNVRVGYMLANPELMQKLLHLKMRSGLTTSQVMERVVYAAIIDGRWRKHLKRLRQRLAEAHQEVGRHLHRLGFELFTESDEGMYIWTRHPAIPDSAALLDDALEKGIMLGPGQLFMVDAKATGWMRFNVAFSTDPAMWELLEKVLVKHVRRSGM, MGSDKIHHHHHHMFIGREKELATLNGLYNSDKFEFAVIYGRRRVGKTALISHFIQDKKAIYFMGVESNEKQNLENFSQAIMEYASGIMPGTSFVSFQAAIEYVFKLCENERLVLVIDEYPYVAKASKSMASTLQMLIDKNKDNSKMMLILCGSSMSYMEDNVLAYKAPLYGRRTAQMKILPFDFEDSCKYFNGFSAEDMALIYGIVGGTPQYLLQMNDSMSVEDNIKNVFLNPASAIFEEPENLLKQEVREPAVYNAIITAVATGSSRMSEIATKIGETTSVCSQYMKNLINLGLIRKETPYGEKESRKSIYAIADNMFRFWYRFIPDNNSIISRGATELAYKRIAPNLSDYMGRIFEEICMQYMWKLLLDGESPVEFSNLGRWWGTDPQERIQTEIDIMGDQDKSTVLFGECKWINENVDVKVLEKLKKRSRLFRYENVHLFLFAKKGFTQGCIEEAGKMGNVSLVTYDQIYRYLNNIDLSQ, MGSDKIHHHHHHMFIKLNKGLDLPISGEPEQCVYAATAVRHIAVAGVDYIDLKPTMKVTEGDRVRLGQPLFEYKKLPGVVFTAPGAGRIVAINRGTRRILLSVVLQLDEQEDEETFIKYAPDELSNLADEQVKENLLISGLWTTLRTRPYSKVPDPATRPAAIFITAIDSNPLAADPVPIITAEMESFNHGLRILSRLTDGPLWVCQSPQAKLSLPEDLPQLQQARFAGPHPAGLPGTHIHFLQPVSAYKTVWYLNYQEVIAIGKLFVTGRLWTERIVALGGPGVKKPRLLRTRLGASLEELLAGELVESMDKRVISGSVWSGRKAVDELAFLGRHHLQVTVIGEKSEREFLGWLNPGGNKYSKLNVLFSSFFRKKRKFEFTASQQGSPRAMIPIDTFEEVMPLDILPAQLLRALLVMDTDMAQKLGCLELDEEDLALCSFICVGKHDYGVILRENLRQIEKEG, MGSDKIHHHHHHMFKKVSRDPVHSEIYLYPLEILATDTKVVQRLRFLSQLAGATVVYPGATHTRFAHSLGTMHVAGLYARNLFKESDRIRIVRLAALLHDVGHGPFSHQFDDVVFKRYGYEDGHDEFRNRLITEKLPEEMMRVFNSYNERLKQAVIEDIRESVGEVSLEDAFQEIAKRVVEVYRGEETGSVDFNIIQGPLGADRLDFLLRDSYYSGVGHFAPMNVDRVLRNSLVKEVDGKEILCYHVKVVDNIYSILFSRFMMYKNVYFHKTSRAADLMIQEILLRACEILDLEERLKDLDEFLELTDYSILRELELKGDSETKKLVERFKNRDLWKMVVERPFSAEGFDPSELSLSAARNLIDKIVENIDRVLSSVNVEDSDKSILEEIRDNKEKFFRIDTPYKLTIFHPDEFLQNNVFLYDPKHDEILTVDEYVKKYPAYRLMVSNMIQIVRVYVTEDVREVLFKYGVIPEDGRRVITRW, MGSDKIHHHHHHMFLKENSVDDFDKQLDDLFKTTKTSRISELSEALGVSPTTIRTWRGRNKIPASAFRKAELSIQNDSDVKTDTRISLSFYEISASAGGGALVEVEEQANLISFEPEWLNKEIGVNANDVFLMLVDGDSMYPTLKNGAMIMVNKHFNGLSDGIYVMRHEQNLLVKRLQMLPNGIIKVKSDNNLYEPWEINKENLDGTDIEIIGRVVWSGQRM, MGSDKIHHHHHHMFRTFTEKRSEWKEQISEEIIPLIHRGMVNRKQWLLVNLKGRLWSGSLRDQFMFENIEWLRNYYKGEKLIVWAHNYHIRKNRSLLLELLRIKTVDHLLAKKYADRVFSVGFYAGSGTCLTPYKDLHEITMINQYHLELLLKELNGHTFFLPTNIGAKRNAWNKQAWWLLETRLLGMAPLVLKPIKAYDAIFFIKCVKPPQELGG, MGSDKIHHHHHHMFSDMTLLQYINSEDRGFFLPDMGTNGLFLINKKAYEVYDSVDLQLELAKTMDKYFESDFIYSFCDGITFCETLGLETLRPDYDFPSVLTHTITDRDKLRKLDVPDPYTSGRMPLNIESLSVISKSIKKPLYESIQGPFTLAGQLAGATQLLRCIITDKKFVEELLEFTTELVRRYAVAANKAGAKYISIAEPTSVTLSKDRFDEFIVKNLNKIYNELDCWKGMHICGDTRELLDNMLSCNIDAVSLDQILDYEEIAPMIPRDIVLIGNLDPIKLLGRSKPDKIRRETLKLLKKMRRYDNFLCDFGCNCLNTTPVENLQAAIKAGRISYKELDRIDIDEL, MGSDKIHHHHHHMFSIGKHSDFTPSCVSRMLGDLHFVNQGTAMKFSRYFFSLLTTLPLLACTQVEAPVPEALSQSTGHTAGAAQPQESVIGGSLPIGDSSRTSLDWQGSYEGVVPCASCEGIKTRLTLNNDGTYLLQSQYLGKEQDGKEPKVFEEQGKFSWNASGGAIQLENGAWYQVGENQLFMLDREGKRITGVLAGHYRLLKKQSALLPRF, MGSDKIHHHHHHMFSISHPGDFESLKIIVNEINKLRKINKKLKKESFEVYVGFPEFVGTGRATLYKPNFEDLAKQVNYAKKHNVRFEVVINASCIGGMHLTPKGISYINWIFSQLKNIGVDSVALSDPYLVDLAKNNGLEVNVSCIALVDSLDKALFWDEKEVYAITLDSSINRHFDIIQEIRENVSCKLKILVNEACLYKCPMRIQHFNFFSHANAQNIPALDDYYYNKCINLRIKKKELIIKSPFIRPEDLKYYKGLVDIFKISGRSHPIGWIKRVINAYLNERWDGNLMELLDCPRELEHFYYLDNRALDGAIEYWKSCNKLCSKCNFCKELAEKALKVKY, MGSDKIHHHHHHMFSVEQLQAFITTVETGSFSAAARRLNKVQSVVSQHVINLEVDCNILLFDRSGRYPALTEAGEKLLPHAQAVIDQHQRLKNSALSLTDNTPKEITIALDEGISFKLISGIISNLQNEFPNITLEFLSASSPDIIDMLKNEKALTGIVFSELTIPSYLDFECIGSIKFDLYVAKSHPLANQVCKNIDSLRLHRQLLIRSRNTQSSSFQLKLSPNVWYADNYFLLLELALQGNGWCLLPNHIANESVESGQLVKLPLEFEEMGWQANVDVVQHQRHSNLAVFKVLRLLLRNLL, MGSDKIHHHHHHMGAMRPNQTFSHKAAVKLRSVEFLQYAGVTKFHDVILTSLVDINIGIGKRGSAQIKLPYTCVSGSLANTSGTADISLAYTHAVLVKDTYQLLGTLGGKLPTNNADKLSSDGRPLPMYYQTSLGTNDLVVGLSFITRKWLLATGYQHAFNQIGNDFRWSEWNSSAQRTEALEYPPSWNLKRGSDVMFRIERNFRSTKWNAYLGLLTIYRITPDQVSKGTSENRVEVPNTTGPAITALSGAGYRFSTAVALKAMVGVKIINRDTNPDGLSREFVSSLSVEIRL, MGSDKIHHHHHHMGARLKHYGWGREGEGMNEAEQAFVLGRYKAKFGRDSFDTVEVAHLDDIKLREPRIVPPKSLSEICAVDVYHRAAHAYGKSYPDYVRGMLGDYDAAPDVVAYPRDEAEIAAVMDWAGGAGAALTPFGGGSSVCGGVECRVDGNRHKAAVTLDLRHLGKVLEVDATSRAALIQGGAYGPALEAQLKPHNVTLRHFPQSFEYSTLGGWIATRSGGHYASLYTHIDDFVESVRVVTPRGVLETRRLPGSGAGPSPDRMFIGSEGILGVISAAWMRLQSRPRFRAGASVRFPSFFAAARAVRAVAQAGLYPSNCRILDPQEAYNTGAADGSVAIMVLAFESGDHPVEPWMARALECCADHGGIREEAEASSGHLEGAAGLWRNAFIRMPYAREFLTPAGLINDTFETSITWERFESFHDSVKTVTEQAILDATGIKGEVTCRFTHVYPDGPAPYFSFHALGRHGELLEQWQAIKDAASDALIAAGGTITHHHAVGRDHRKWYDRQRPDLFAVALRAAKRELDPQAMLNPGVLIDP, MGSDKIHHHHHHMGDVTVKDYKGGTIEDPEELKSNQTILTIDQAKYFNFKVDDVDKAQSNILLVDKGMGRASYAVQDVIDKFIAALVKDAKIKIGSTSKPIEITVANAYDTLVDLGVELDNKNVPRVGRFAILPPFYLGLLSKDPRFTKDFKILENGVVEGATVSGFKLMMSNNVPFSANNYSIMAGTDMAISYAGQVTEIEAYRPEKSFSDAMKGLYVFGAKVVQPDCLACLTVKQKVAEV, MGSDKIHHHHHHMGHDLPPLPSRDVHAVRWYVLSLPACHKGPAKGLKKELDRRVRLGEPTFDFFAPSFVEMRRREGHLVETHRPLLYNYVFIRSSVYEIFRLKRDFPLYNFLPSVDGRGSYPFVSDREMENLRWVARSYSDELPVYVPEAGYLRKGDRIRITDGRFKGVEASVVIQPGVGEREVMVCVDNWMWVPLLRVQPGEYEVISLAEEGKHVYTRLDNSRIQNGLHEALGRHWGSCGVTAADRELAAETLRTYGELQLDSAVMRCKLYSLLLPAYTILGDEERQKSLIGTIVSFLSLIRAEQSLALLLLTLYGCTDSSIYYYRAHELIDPWSRESSPKKSKLSLIRRLADYDRWLKHNE, MGSDKIHHHHHHMGIENMKICIVSFTKKGYELSCDIAYKLEKSAYEVEVFTKCSRLSDENIKNSTDENYRNTGYISQNISDWTAAQMSEKKALIFIGACGIAVRAIASSVNNKLKDSPVIVIDELGKFVIPILSGHVGGANEFAVLLAALMNATPVITTATDINNKFAVDVFAKKCRLAIVNKDGIARVSSKVLAGEVVTMSVDWEHIPAKHRSLIKAFLDKADMSADAIKTVDFPPAYGADIVVSCEKEKDTKNGSIYLKPTQFVLGIGCRRDTAFENIDRAIRQSLLKLQIDISDIDMIASIDVKKDEPGIKEFCERNRIEFVTYTADELMAVQGEFSASQFVREHVGVDNVCERAAVLACSRECDKAGELIYKKHKYDRVTVAAARYPD, MGSDKIHHHHHHMGKFLVEREQMRYPVDVYTGKIQAYPEGKPSAIAKIQVDGELMLTELGLEGDEQAEKKVHGGPDRALCHYPREHYLYWAREFPEQAELFVAPAFGENLSTDGLTESNVYMGDIFRWGEALIQVSQPRSPCYKLNYHFDISDIAQLMQNTGKVGWLYSVIAPGKVSADAPLELVSRVSDVTVQEAAAIAWHMPFDDDQYHRLLSAAGLSKSWTRTMQKRRLSGKIEDFSRRLWGK
